{
  "source": "patent US20170306053A1",
  "about": "(Astellas, published 2017)",
  "key": {"[1]": {"molecular_target": "T1, human TLR4/MD2 (on cells) (human, UniProt O00206 24-839; Q9Y6Y9 19-160)", "T1 construct": "whole, on cells; Cell ELISA on human TLR4/MD2 expressing HEK 293 cells; neutralisation assays on U937 cells with endogenous TLR4/MD2; also called Human TLR4/MD2 expressing HEK 293 cells; U937 cells that endogenously express the human TLR4/MD2", "T1 sequence (O00206 24-839, chain 1 of 2)": "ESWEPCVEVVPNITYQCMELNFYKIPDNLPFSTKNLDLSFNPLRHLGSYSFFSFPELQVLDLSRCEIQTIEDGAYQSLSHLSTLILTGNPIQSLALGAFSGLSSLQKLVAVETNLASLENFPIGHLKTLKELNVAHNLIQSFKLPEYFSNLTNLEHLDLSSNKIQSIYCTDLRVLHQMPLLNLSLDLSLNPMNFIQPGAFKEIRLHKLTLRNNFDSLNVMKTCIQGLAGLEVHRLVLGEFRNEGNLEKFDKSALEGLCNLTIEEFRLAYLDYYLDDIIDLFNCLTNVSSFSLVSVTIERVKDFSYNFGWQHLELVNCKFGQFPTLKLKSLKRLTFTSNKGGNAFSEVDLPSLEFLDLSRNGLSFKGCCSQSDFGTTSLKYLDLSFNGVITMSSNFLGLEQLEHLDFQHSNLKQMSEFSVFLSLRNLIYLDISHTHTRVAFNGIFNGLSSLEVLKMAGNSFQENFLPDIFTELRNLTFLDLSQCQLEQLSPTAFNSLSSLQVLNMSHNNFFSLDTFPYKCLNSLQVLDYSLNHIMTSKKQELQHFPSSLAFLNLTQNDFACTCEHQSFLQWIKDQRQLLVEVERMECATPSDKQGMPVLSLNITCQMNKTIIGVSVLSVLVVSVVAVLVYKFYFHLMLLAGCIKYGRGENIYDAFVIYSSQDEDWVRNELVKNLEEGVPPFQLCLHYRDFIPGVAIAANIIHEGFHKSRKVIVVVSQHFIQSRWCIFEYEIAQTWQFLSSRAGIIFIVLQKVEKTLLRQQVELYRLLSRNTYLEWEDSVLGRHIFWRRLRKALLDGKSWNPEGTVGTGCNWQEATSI", "T1 sequence (Q9Y6Y9 19-160, chain 2 of 2)": "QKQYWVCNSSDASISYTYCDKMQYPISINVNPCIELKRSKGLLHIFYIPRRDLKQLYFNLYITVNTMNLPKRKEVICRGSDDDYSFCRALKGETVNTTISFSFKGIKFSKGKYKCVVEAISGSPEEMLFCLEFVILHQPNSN", "experiment": "cell ELISA on human TLR4/MD2 expressing HEK 293 cells", "protocol": "In order to evaluate the binding activity of the tandem form a (bispecific antibody format having the anti-human TLR2 antibody portion on the outer side and the anti-human TLR4 antibody portion on the inner side) prepared in Example 1 to the human TLR4, cell ELISA was performed. As reference antibodies, the tandem form c and the TLR4-IgG were used. Human TLR4/MD2 expressing HEK 293 cells were seeded at 1×10⁴ cells/well in a BD Bio Coat poly D-lysine 384 well plate (Becton Dickinson Co., Ltd.) using an α-MEM culture medium (Life Technologies Co., Ltd.) and incubated overnight. […] Twenty minutes later, 25 μL of 1 M sulfuric acid was added to stop the color reaction, and the color intensity thereof was measured with Safire II (Tecan Co., Ltd.) to evaluate the binding activity of the antibody. Using the obtained measurement results, 50% effective concentration (EC₅₀) of each antibody was calculated from 4 parameter logistic curve regression by statistical analysis software GraphPad Prism (GraphPad Software Co., Ltd.)."}, "[2]": {"molecular_target": "T1, human TLR4/MD2 (on cells)", "experiment": "cell-based or functional assay"}, "[3]": {"molecular_target": "T1, human TLR4/MD2 (on cells)", "experiment": "cell-based or functional assay", "remark": "listed apart in the source"}, "[4]": {"molecular_target": "T2, human TLR2 protein (R&D systems Co., 2616 TR/CF) (human, UniProt O60603 21-590)", "T2 construct": "Bought protein captured on an anti-His IgG chip; not shown: His tag implied by capture on anti-His IgG", "T2 sequence (O60603 21-590)": "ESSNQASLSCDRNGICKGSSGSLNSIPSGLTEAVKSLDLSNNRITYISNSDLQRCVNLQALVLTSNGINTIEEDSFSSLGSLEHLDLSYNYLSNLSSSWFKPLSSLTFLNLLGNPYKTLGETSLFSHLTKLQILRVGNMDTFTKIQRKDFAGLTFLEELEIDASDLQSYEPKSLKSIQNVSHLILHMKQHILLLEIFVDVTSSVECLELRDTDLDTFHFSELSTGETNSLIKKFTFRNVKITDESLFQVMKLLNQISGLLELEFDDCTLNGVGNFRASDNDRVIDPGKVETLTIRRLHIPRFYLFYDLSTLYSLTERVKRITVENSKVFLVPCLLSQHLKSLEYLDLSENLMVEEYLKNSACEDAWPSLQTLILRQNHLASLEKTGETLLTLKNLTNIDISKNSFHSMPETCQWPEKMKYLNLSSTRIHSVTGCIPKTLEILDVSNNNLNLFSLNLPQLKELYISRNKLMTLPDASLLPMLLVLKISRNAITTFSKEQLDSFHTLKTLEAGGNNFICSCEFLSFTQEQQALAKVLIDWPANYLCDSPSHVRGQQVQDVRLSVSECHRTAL", "experiment": "SPR (Biacore T200), human TLR2 captured on anti-His IgG, antibody as analyte, bivalent analyte model", "protocol": "In order to evaluate the binding activity of the tandem form a prepared in Example 1 to the human TLR2, SPR analysis was performed. The tandem form c and the TLR2-IgG were used as the reference antibody. For SPR analysis, Biacore T200 (GE Healthcare Japan Corporation) was used. Anti-His IgG (attached to His Capture Kit) was immobilized on CMS sensor chip using His Capture Kit (GE Healthcare Japan Corporation, 28-9950-56) and Amine Coupling Kit (GE Healthcare Japan Corporation, BR-1000-50). […] Thereafter, a solution (eight step, two fold serial dilution in the concentration range of final concentration from 100 nM to 0.781 nM) obtained by serially diluting each purified antibody (tandem form a, tandem form c, or TLR 2-IgG) with HBS-EP+buffer was added at a flow rate of 50 μL/min for 2 minutes, and the binding between the purified antibody and TLR 2 was measured. Next, HBS-EP+buffer was added at a flow rate of 50 μL/min for 5 minutes, and dissociation of the purified antibody and the human TLR2 was measured. Bivalent analyte model, Rmax was analyzed by Fit local, a binding rate constant (kₐ) and a dissociation rate constant (kd) were calculated, and kd was divided by kₐ to calculate the binding dissociation constant (KD)."}, "[5]": {"molecular_target": "human TLR2 (endogenous, on U937 cells) (human, UniProt O60603 21-784)", "sequence (O60603 21-784)": "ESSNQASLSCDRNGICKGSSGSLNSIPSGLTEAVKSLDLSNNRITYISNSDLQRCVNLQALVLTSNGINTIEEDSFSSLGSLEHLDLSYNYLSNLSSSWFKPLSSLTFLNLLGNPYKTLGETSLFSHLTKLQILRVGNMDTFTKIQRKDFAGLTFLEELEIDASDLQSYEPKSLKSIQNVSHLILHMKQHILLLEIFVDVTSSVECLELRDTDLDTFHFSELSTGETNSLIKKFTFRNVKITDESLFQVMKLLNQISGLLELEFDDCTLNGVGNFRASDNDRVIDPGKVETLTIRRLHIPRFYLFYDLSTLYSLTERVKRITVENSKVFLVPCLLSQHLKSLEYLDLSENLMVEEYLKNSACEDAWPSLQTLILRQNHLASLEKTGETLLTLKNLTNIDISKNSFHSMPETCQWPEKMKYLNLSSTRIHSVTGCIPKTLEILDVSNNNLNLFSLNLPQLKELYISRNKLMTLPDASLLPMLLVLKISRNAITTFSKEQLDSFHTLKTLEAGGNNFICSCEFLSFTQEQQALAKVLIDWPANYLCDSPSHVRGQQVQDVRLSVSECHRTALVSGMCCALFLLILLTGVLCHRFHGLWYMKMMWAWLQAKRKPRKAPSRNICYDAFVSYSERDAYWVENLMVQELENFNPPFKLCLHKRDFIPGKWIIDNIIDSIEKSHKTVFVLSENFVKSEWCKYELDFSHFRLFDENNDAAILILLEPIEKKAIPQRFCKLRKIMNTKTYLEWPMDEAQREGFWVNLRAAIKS", "experiment": "cell-based or functional assay"}},
  "note": "Read-outs that look alike come from different tables or passages of the source.",
  "data": [
    {"binder": "TLR4-IgG (anti-human TLR4 antibody of IgG type) (antibody, V domains shown, it says variable regions and human Iggamma1 / Igkappa constant regions as used in tandem form a) VH: EVQLVESGGGLVQPGGSLRLSCAASGFTFDTYAMHWVRQAPGKGLEWVAGISWNSGNIGYADSVKGRFTISRDNSKNTLYLQMNSLRAEDTAVYYCAKDWDNWNLFDYWGQGTLVTVSS VL: DIQMTQSPSSLSASVGDRVTITCRASQSISSWLAWYQQKPGKAPKLLIYKASSLESGVPSRFSGSGSGTDFTLTISSLQPEDFATYYCQQYSSYSWTFGQGTKVEIKR", "values": [
      {"measurement": "EC50", "setting": "[1]", "result": 0.38, "unit": "nM"},
      {"measurement": "IC50 (M), Neutralization Activity to Human TLR4 (LPS-induced IL-6 production inhibition, U937 cells)", "setting": "[2]", "result": "2.2e-12", "unit": "M"},
      {"measurement": "IC50 (M), Neutralization Activity to Human TLR4 (LPS-induced IL-6 production inhibition, U937 cells)", "setting": "[3]", "result": "2.2e-12", "unit": "M"}
    ]},
    {"binder": "TLR2-IgG (anti-human TLR2 antibody of IgG type) (antibody, V domains shown, it says variable regions and human Iggamma1 / Igkappa constant regions as used in tandem form a) VH: QVQLQESGPGLVKPSETLSLTCTVSGGSISSFYWTWIRQPPGKGLEWIGYIHYSGSTNYNPSLKSRVTISVDTSKNQFSLTLSSVTAADTAVYYCARRRSMNWFDPWGQGTLVIVSS VL: AIQMTQSPSSLSASVGDRVTITCRASQVIRNDLGWYQQKPGKAPKFLIYAASSLQSGVPSRFSGSGSGTDFTLTISSLQPEDFATYYCLQDYNYPLTFGGGTKVEIKR", "values": [
      {"measurement": "Kd", "setting": "[4]", "result": 2.69, "unit": "nM"},
      {"measurement": "IC50 (read off the curve); inhibition of Pam2CSK4-induced IL-6 production in U937 cells", "setting": "[5]", "result": "~0.1", "unit": "nM"}
    ]},
    {"binder": "Tandem form a (protease recognition sequence SEQ ID NO: 5; light chain linker SEQ ID NO: 9) (bispecific antibody) chain 1: not shown chain 2: AIQMTQSPSSLSASVGDRVTITCRASQVIRNDLGWYQQKPGKAPKFLIYAASSLQSGVPSRFSGSGSGTDFTLTISSLQPEDFATYYCLQDYNYPLTFGGGTKVEIKRTVAAPSVFIFPPSDEQLKSGTASVVCLLNNFYPREAKVQWKVDNALQSGNSQESVTEQDSKDSTYSLSSTLTLSKADYEKHKVYACEVTHQGLSSPVTKSFNRGEC chain 3: not shown", "values": [
      {"measurement": "Kd", "setting": "[4]", "result": 2.32, "unit": "nM"}
    ]}
  ]
}
